Data: patent US20260250371A1 (ULTRAGENYX PHARMACEUTICAL, published 2026)
Values joined by “and” are separate entries in the source; they are usually repeats but may differ in a detail not shown here. Equal entries are not always repeated. Where two headings read alike, the source gives them in different places.

T1: recombinant human FGF23 (R179Q) (human, UniProt Q9GZV9 25-251)
T1 construct: also called rhFGF23(R179Q); hFGF23(R179Q)
T1 sequence (looked up): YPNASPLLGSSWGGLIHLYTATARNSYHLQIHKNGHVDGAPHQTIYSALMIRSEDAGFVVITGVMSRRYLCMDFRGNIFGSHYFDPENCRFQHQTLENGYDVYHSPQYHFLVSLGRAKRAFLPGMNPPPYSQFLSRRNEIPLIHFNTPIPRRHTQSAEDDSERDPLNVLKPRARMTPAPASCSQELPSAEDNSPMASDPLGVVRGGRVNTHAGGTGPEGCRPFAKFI

T2: cynomolgus monkey (Macaca fascicularis) FGF23 (R179Q) (cynomolgus monkey (Macaca fascicularis), UniProt Q9GZV9 25-251 (human entry), limits assumed)
T2 construct: also called cynoFGF23; cynoFGF23(R179Q)
T2 chain: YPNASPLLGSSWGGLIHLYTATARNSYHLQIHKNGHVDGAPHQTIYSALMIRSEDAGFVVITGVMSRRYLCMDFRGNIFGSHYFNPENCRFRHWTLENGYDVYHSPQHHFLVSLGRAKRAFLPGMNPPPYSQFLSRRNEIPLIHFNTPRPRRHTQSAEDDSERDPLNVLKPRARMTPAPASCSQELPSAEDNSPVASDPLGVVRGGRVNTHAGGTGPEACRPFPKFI


Assays:
[1] = target: T1, recombinant human FGF23 (R179Q); assay: SPR, antibody captured on hIgG chip, rhFGF23(R179Q) analyte
[2] = target: T2, cynomolgus monkey (Macaca fascicularis) …; assay: SPR, antibody captured on hIgG chip, cynoFGF23(R179Q) analyte, single cycle kinetics
Procedure: Binding kinetics of 13 antibody variants shown in Table 19 were characterized against cynomolgus monkey (Macaca fascicularis) FGF23 (R179Q) (i.e., “cynoFGF23”) (SEQ ID NO: 372). Antibody variants were expressed at small scale (3 ml) and screened by SPR analysis at a single concentration (100 nM). Experimental setup of SPR analysis for CRC: SPR device—8K+; chip preparation—CM5 hIgG chip: channels—1-8; immobilization concentration—1.5 ug/ml; immobilization method—capture; flow rate—5 μl/min; contact time—60 s; running buffer—1×HBS-EP+pH 7.4; temperature—20° C.: flow rate—50 μl/min; association time—120 s; dissociation time—1800 s; antigen—cynoFGF23(R179Q): top concentration—0.1 μM, 9-pt 3-fold Single Cycle Kinetics.

[3] = target: T1, recombinant human FGF23 (R179Q); assay: SPR, antibody captured on hIgG chip, human FGF23 analyte
[4] = target: T1, recombinant human FGF23 (R179Q); assay: SPR, antibody captured on hIgG chip, rhFGF23(R179Q) analyte; remark: listed apart in the source

| Kd [1] | Ratio (variant antibody KD/burosumab KD) [1] | SA (surface activity) [1] | koff [1] | kon [1] | KD ratio (variant antibody KD/burosumab KD) [2] | Kd [2] | KD ratio (variant antibody KD/burosumab KD) [3] | Kd [3] | Kd [4] | Ratio (variant antibody KD/burosumab KD) [4] | SA (surface activity) [4] | koff [4] | kon [4] | Binder |
| --- | --- | --- | --- | --- | --- | --- | --- | --- | --- | --- | --- | --- | --- | --- |
| 0.0208 nM | 1 | 88.8% | 0.000157 s⁻¹ | 7.22e+06 M⁻¹ s⁻¹ | – | – | – | – | – | – | – | – | – | Burosumab (antibody, human IgG1, kappa, V domains shown, Recombinant human IgG1 kappa; also called burosumab-twza; parental burosumab) VH: QVQLVQSGAEVKKPGASVKVSCKASGYTFTNHYMHWVRQAPGQGLEWMGIINPISGSTSNAQKFQGRVTMTRDTSTSTVYMELSSLRSEDTAVYYCARDIVDAFDFWGQGTMVTVSS VL: AIQLTQSPSSLSASVGDRVTITCRASQGISSALVWYQQKPGKAPKLLIYDASSLESGVPSRFSGSGSGTDFTLTISSLQPEDFATYYCQQFNDYFTFGPGTKVDIKR |
| 0.00772 nM | 3 | 86.8% | 9.61e-05 s⁻¹ | 1.24e+07 M⁻¹ s⁻¹ | 4 | 0.00617 nM | 3 | 0.00772 nM | 0.00772 nM | 3 | 86.8% | 9.61e-05 s⁻¹ | 1.24e+07 M⁻¹ s⁻¹ | UGX175 (antibody, human IgG1, kappa, V domains shown, also called HC:A103S; A103S) VH: QVQLVQSGAEVKKPGASVKVSCKASGYTFTNHYMHWVRQAPGQGLEWMGIINPISGSTSNAQKFQGRVTMTRDTSTSTVYMELSSLRSEDTAVYYCARDIVDSFDFWGQGTMVTVSS VL: AIQLTQSPSSLSASVGDRVTITCRASQGISSALVWYQQKPGKAPKLLIYDASSLESGVPSRFSGSGSGTDFTLTISSLQPEDFATYYCQQFNDYFTFGPGTKVDIKR |
| – | – | – | – | – | 1 | 0.0162 nM | 1 | 0.0164 nM | 0.0164 nM | 1 | 86.2% | 0.000104 s⁻¹ | 6.32e+06 M⁻¹ s⁻¹ | UGX139 (antibody, human IgG1, kappa, V domains shown, also called UGX038; LC:N92Y) VH: QVQLVQSGAEVKKPGASVKVSCKASGYTFTNHYMHWVRQAPGQGLEWMGIINPISGSTSNAQKFQGRVTMTRDTSTSTVYMELSSLRSEDTAVYYCARDIVDAFDFWGQGTMVTVSS VL: AIQLTQSPSSLSASVGDRVTITCRASQGISSALVWYQQKPGKAPKLLIYDASSLESGVPSRFSGSGSGTDFTLTISSLQPEDFATYYCQQFYDYFTFGPGTKVDIKR |
| 0.0105 nM | 2 | 106% | 6.25e-05 s⁻¹ | 5.94e+06 M⁻¹ s⁻¹ | 6 | 0.00415 nM | 2 | 0.0105 nM | 0.00924 nM and 0.0105 nM | 2 | – | 9.77e-05 s⁻¹ and 6.25e-05 s⁻¹ | 1.06e+07 M⁻¹ s⁻¹ and 5.94e+06 M⁻¹ s⁻¹ | UGX156 (antibody, human IgG1, kappa, V domains shown, also called HC:I54F; I54F) VH: QVQLVQSGAEVKKPGASVKVSCKASGYTFTNHYMHWVRQAPGQGLEWMGIINPFSGSTSNAQKFQGRVTMTRDTSTSTVYMELSSLRSEDTAVYYCARDIVDAFDFWGQGTMVTVSS VL: AIQLTQSPSSLSASVGDRVTITCRASQGISSALVWYQQKPGKAPKLLIYDASSLESGVPSRFSGSGSGTDFTLTISSLQPEDFATYYCQQFNDYFTFGPGTKVDIKR |
| – | – | – | – | – | – | – | – | – | 3.08 nM | 0 | 92.7% | 0.0103 s⁻¹ | 3.35e+06 M⁻¹ s⁻¹ | UGX190 (antibody, human IgG1, kappa, V domains shown, also called HC:S59T, HC:V101L) VH: QVQLVQSGAEVKKPGASVKVSCKASGYTFTNHYMHWVRQAPGQGLEWMGIINPISGSTTNAQKFQGRVTMTRDTSTSTVYMELSSLRSEDTAVYYCARDILDAFDFWGQGTMVTVSS VL: AIQLTQSPSSLSASVGDRVTITCRASQGISSALVWYQQKPGKAPKLLIYDASSLESGVPSRFSGSGSGTDFTLTISSLQPEDFATYYCQQFNDYFTFGPGTKVDIKR |
| 0.0133 nM | 2 | 87.4% | 8.52e-05 s⁻¹ | 6.42e+06 M⁻¹ s⁻¹ | 2 | 0.0129 nM | 2 | 0.0133 nM | 0.0138 nM and 0.0133 nM | – | – | 8.52e-05 s⁻¹ and 9.74e-05 s⁻¹ | 6.42e+06 M⁻¹ s⁻¹ and 7.07e+06 M⁻¹ s⁻¹ | UGX145 (antibody, human IgG1, kappa, V domains shown, also called UGX042; LC:Y94E) VH: QVQLVQSGAEVKKPGASVKVSCKASGYTFTNHYMHWVRQAPGQGLEWMGIINPISGSTSNAQKFQGRVTMTRDTSTSTVYMELSSLRSEDTAVYYCARDIVDAFDFWGQGTMVTVSS VL: AIQLTQSPSSLSASVGDRVTITCRASQGISSALVWYQQKPGKAPKLLIYDASSLESGVPSRFSGSGSGTDFTLTISSLQPEDFATYYCQQFNDEFTFGPGTKVDIKR |
| 0.00758 nM | 3 | 89.1% | 0.000113 s⁻¹ | 1.49e+07 M⁻¹ s⁻¹ | 4 | 0.00573 nM | 3 | 0.00758 nM | 0.00758 nM | 3 | 89.1% | 0.000113 s⁻¹ | 1.49e+07 M⁻¹ s⁻¹ | UGX157 (antibody, human IgG1, kappa, V domains shown, also called HC:I54Y; I54Y) VH: QVQLVQSGAEVKKPGASVKVSCKASGYTFTNHYMHWVRQAPGQGLEWMGIINPYSGSTSNAQKFQGRVTMTRDTSTSTVYMELSSLRSEDTAVYYCARDIVDAFDFWGQGTMVTVSS VL: AIQLTQSPSSLSASVGDRVTITCRASQGISSALVWYQQKPGKAPKLLIYDASSLESGVPSRFSGSGSGTDFTLTISSLQPEDFATYYCQQFNDYFTFGPGTKVDIKR |
| 0.00947 nM | 2 | 100% | 0.000141 s⁻¹ | 1.49e+07 M⁻¹ s⁻¹ | 1 | 0.0163 nM | 2 | 0.00947 nM | 0.00947 nM | 2 | 100% | 0.000141 s⁻¹ | 1.49e+07 M⁻¹ s⁻¹ | UGX182 (antibody, human IgG1, kappa, V domains shown, also called HC:S59D, HC:V101I; S59D/V101I) VH: QVQLVQSGAEVKKPGASVKVSCKASGYTFTNHYMHWVRQAPGQGLEWMGIINPISGSTDNAQKFQGRVTMTRDTSTSTVYMELSSLRSEDTAVYYCARDIIDAFDFWGQGTMVTVSS VL: AIQLTQSPSSLSASVGDRVTITCRASQGISSALVWYQQKPGKAPKLLIYDASSLESGVPSRFSGSGSGTDFTLTISSLQPEDFATYYCQQFNDYFTFGPGTKVDIKR |
| – | – | – | – | – | – | – | – | – | 20.6 nM | 0 | 82.3% | 0.0236 s⁻¹ | 1.15e+06 M⁻¹ s⁻¹ | UGX192 (antibody, human IgG1, kappa, V domains shown, also called HC:N52F, HC:V101I) VH: QVQLVQSGAEVKKPGASVKVSCKASGYTFTNHYMHWVRQAPGQGLEWMGIIFPISGSTSNAQKFQGRVTMTRDTSTSTVYMELSSLRSEDTAVYYCARDIIDAFDFWGQGTMVTVSS VL: AIQLTQSPSSLSASVGDRVTITCRASQGISSALVWYQQKPGKAPKLLIYDASSLESGVPSRFSGSGSGTDFTLTISSLQPEDFATYYCQQFNDYFTFGPGTKVDIKR |
| 0.00517 nM | 4 | 83.4% | 5.81e-05 s⁻¹ | 1.12e+07 M⁻¹ s⁻¹ | 2 | 0.0101 nM | 4 | 0.00517 nM | 0.00452 nM and 0.00632 nM and 0.00517 nM | – | – | 3.65e-05 s⁻¹ and 6.31e-05 s⁻¹ and 5.81e-05 s⁻¹ | 8.08e+06 M⁻¹ s⁻¹ and 9.99e+06 M⁻¹ s⁻¹ and 1.12e+07 M⁻¹ s⁻¹ | UGX201 (antibody, human IgG1, kappa, V domains shown, also called HC:S59E, LC:N92F; S59E/N92F) VH: QVQLVQSGAEVKKPGASVKVSCKASGYTFTNHYMHWVRQAPGQGLEWMGIINPISGSTENAQKFQGRVTMTRDTSTSTVYMELSSLRSEDTAVYYCARDIVDAFDFWGQGTMVTVSS VL: AIQLTQSPSSLSASVGDRVTITCRASQGISSALVWYQQKPGKAPKLLIYDASSLESGVPSRFSGSGSGTDFTLTISSLQPEDFATYYCQQFFDYFTFGPGTKVDIKR |
| 0.0124 nM | 2 | 86.5% | 0.00013 s⁻¹ | 1.05e+07 M⁻¹ s⁻¹ | 2 | 0.0103 nM | 2 | 0.0124 nM | 0.0124 nM | 2 | 86.5% | 0.00013 s⁻¹ | 1.05e+07 M⁻¹ s⁻¹ | UGX126 (antibody, human IgG1, kappa, V domains shown, also called LC:S52D; S52D) VH: QVQLVQSGAEVKKPGASVKVSCKASGYTFTNHYMHWVRQAPGQGLEWMGIINPISGSTSNAQKFQGRVTMTRDTSTSTVYMELSSLRSEDTAVYYCARDIVDAFDFWGQGTMVTVSS VL: AIQLTQSPSSLSASVGDRVTITCRASQGISSALVWYQQKPGKAPKLLIYDADSLESGVPSRFSGSGSGTDFTLTISSLQPEDFATYYCQQFNDYFTFGPGTKVDIKR |
